Experimental data published in patent US20210231678A1, “ALLERGY ANTIGEN AND EPITOPE THEREOF” (FUJITA ACADEMY, priority 2020, published 2021).

B1: Hevamine-A (protein, listed as Hevea brasiliensis)
chain: MAKRTQAILLLLLAISLIMSSSHVDGGGIAIYWGQNGNEGTLTQTCSTRKYSYVNIAFLNKFGNGQTPQINLAGHCNPAAGGCTIVSNGIRSCQIQGIKVMLSLGGGIGSYTLASQADAKNVADYLWNNFLGGKSSSRPLGDAVLDGIDFDIEHGSTLYWDDLARYLSAYSKQGKKVYLTAAPQCPFPDRYLGTALNTGLFDYVWVQFYNNPPCQYSSGNINNIINSWNRWTTSINAGKIFLGLPAAPEAAGSGYVPPDVLISRILPEIKKSPKYGGVMLWSKFYDDKNGYSSSILDSVLFLHSEECMTVL
B2: Citrate-binding protein (protein, listed as Hevea brasiliensis)
chain: MKMKRSPYCFCCSFALLLLVSFLKDRHFCSADPTDGFTEVPLTEDNFVIQKPYDKPLNDRYSYKNGIRRLWVYENDKPFKVGSPTRPRTEIRIKGHDYSSGVWQFEGQVHVPEGTSGVTVMQVFGAVNKATALQLRVYNGDLKSYKSNSVATDIYNKWLRVNVIHKVGKGEITVFINGQQKLVVNDDGPAEHYFKCGVYAAPDGSSNYMESRWKNIKLYKSDNKLEGCNNNHGTWLVQ

Test system: IgE antibody in the serum of a latex-allergic patient
Test: Immunoblotting of two-dimensional electrophoresis gels of latex proteins with patient serum
Type: binding, human
Details: immunoblot of 2D electrophoresis gel of latex proteins, compared with serum of non-latex-allergic subject
Procedure: Identification of antigens by immunoblotting was carried out by taking all the steps up to the step of “Second-dimensional SDS-PAGE” as described above in Example 1, followed by the steps of “Transfer to membrane”, “Immunoblotting” and “Analysis” as described below.
Transfer system: XCell SureLock Mini-Cell and XCell II Blot Module (produced by Life Technologies) Transfer buffer: NuPAGE Transfer Buffer (X20) (produced by Life Technologies), used in a form diluted 200-fold with milliQ water.
Immunoblotting of the membrane was carried out using, as a primary antibody, a serum sample from a patient with a latex allergy or a serum sample from a non-latex-allergic subject.
(1) The transferred membrane was shaken in a 5% skim milk/PBST solution (a PBS buffer containing 0.1% Tween 20 nonionic surfactant) at room temperature for one hour. […]
The immunoblots obtained with the serum from the latex-allergic patient were compared with those obtained with the control serum from the non-latex-allergic subject. For protein present in latex, in immunoblotting using the serum from the latex-allergic patient, 2 spots were detected, which are different from the spots detected when the serum of the non-latex-allergic subject was used and different from those of the known latex allergen proteins. […]

Row | Molecule | specific binding to IgE antibodies from allergic patients
1 | B1 | specifically bind to IgE antibodies from allergic patients
2 | B2 | specifically bind to IgE antibodies from allergic patients
